The text below walks through data of the PETadex activity labels (doi:10.1016/j.ijbiomac.2025.149745).

First the molecules themselves.
B1: unnamed (protein)
chain: MDGVLWRVRTAALMAALLALAAWALWASPSVEAQSNPYQRGPNPTRSALTADGPFSVATYTVSRLSVSGFGGVIYYPTGTSLTFGGIAMSPGYTADASSLAWLGRRLASHGFVVLVINTNSRFDYPDSRASQLSAALNYLRTSSPSAVRARLDANRLAVAGHSMGGGGTLRIAEQNPSLKAAVPLTPWHTDKTFNTSVPVLIVGCEADTVAPVSQHAIPFYQNLPSTTPKVYVELDNASHFCPNSNNAAISVYTISWMKLWVDNDTRYRQFLCNVNDPALSDFRTNNRHCQCQ
B2: unnamed (protein)
chain: MDGVLWRVRTAALMAALLALAAWALWASPSVEAQSNPYQRGPNPTRSALTADGPFSVATYTVSRLSVSGFGGVIYYPTGTSLTFGGIAMSPGYTADASSLAWLGRRLASHGFVVLVINTNSRFDYPDSRASQLSAALNYLRTSSPSAVRARLDANRLAVAGWSMGGGGTLRIAEQNPSLKAAVPLTPWHTDKTFNTSVPVLIVGAEADTVAPVSQHAIPFYQNLPSTTPKVYVELDNASHSAPNSNNAAISVYTISWMKLWVDNDTRYRQFLCNVNDPALSDFRTNNRHCQCQ
B3: unnamed (protein)
chain: MDGVLWRVRTAALMAALLALAAWALWASPSVEAQSNPYQRGPNPTRSALTADGPFSVATYTVSRLSVSGFGGVIYYPTGTSLTFGGIAMSPGYTADASSLAWLGRRLASHGFVVLVINTNSRFDYPDSRASQLSAALNYLRTSSPSAVRARLDANRLAVAGHSMGGGGTLRIAEQNPSLKAAVPLTPWHTDKTFNTSVPVLIVGCEADTVAPVSQHAIPFYQNLPSTTPKVYVELDNASHSCPNSNNAAISVYTISWMKLWVDNDTRYRQFLCNVNDPALSDFRTNNRHCQCQ
B4: unnamed (protein)
chain: MDGVLWRVRTAALMAALLALAAWALWASPSVEAQSNPYQRGPNPTRSALTADGPFSVATYTVSRLSVSGFGGVIYYPTGTSLTFGGIAMSPGYTADASSLAWLGRRLASHGFVVLVINTNSRFDYPDSRASQLSAALNYLRTSSPSAVRARLDANRLAVAGWSMGGGGTLRIAEQNPSLKAAVPLTPWHTDKTFNTSVPVLIVGCEADTVAPVSQHAIPFYQNLPSTTPKVYVELDNASHSCPNSNNAAISVYTISWMKLWVDNDTRYRQFLCNVNDPALSDFRTNNRHCQCQ
B5: unnamed (protein)
chain: MDGVLWRVRTAALMAALLALAAWALWASPSVEAQSNPYQRGPNPTRSALTADGPFSVATYTVSRLSVSGFGGVIYYPTGTSLTFGGIAMSPGYTADASSLAWLGRRLASHGFVVLVINTNSRFDYPDSRASQLSAALNYLRTSSPSAVRARLDANRLAVAGHSMGGGGTLRIAEQNPSLKAAVPLTPWHTDKTFNTSVPVLIVGAEADTVAPVSQHAIPFYQNLPSTTPKVYVELDNASHSAPNSNNAAISVYTISWMKLWVDNDTRYRQFLCNVNDPALSDFRTNNRHCQCQ
B6: unnamed (protein)
chain: MDGVLWRVRTAALMAALLALAAWALWASPSVEAQSNPYQRGPNPTRSALTADGPFSVATYTVSRLSVSGFGGVIYYPTGTSLTFGGIAMSPGYTADASSLAWLGRRLASHGFVVLVINTNSRFDYPDSRASQLSAALNYLRTSSPSAVRARLDANRLAVAGHSMGGGGTLRIAEQNPSLKAAVPLTPWHTDKTFNTSVPVLIVGAEADTVAPVSQHAIPFYQNLPSTTPKVYVELDNASHFAPNSNNAAISVYTISWMKLWVDNDTRYRQFLCNVNDPALSDFRTNNRHCQCQ
B7: unnamed (protein)
chain: MDGVLWRVRTAALMAALLALAAWALWASPSVEAQSNPYQRGPNPTRSALTADGPFSVATYTVSRLSVSGFGGVIYYPTGTSLTFGGIAMSPGYTADASSLAWLGRRLASHGFVVLVINTNSRFDYPDSRASQLSAALNYLRTSSPSAVRARLDANRLAVAGWSMGGGGTLRIAEQNPSLKAAVPLTPWHTDKTFNTSVPVLIVGAEADTVAPVSQHAIPFYQNLPSTTPKVYVELDNASHFAPNSNNAAISVYTISWMKLWVDNDTRYRQFLCNVNDPALSDFRTNNRHCQCQ
B8: unnamed (protein)
chain: MNFPRASRLMQAAVLGGLMAVSAAATAQTNPYARGPNPTAASLEASAGPFTVRSFTVSRPSGYGAGTVYYPTNAGGTVGAIAIVPGYTARQSSIKWWGPRLASHGFVVITIDTNSTLDQPSSRSSQQMAALRQVASLNGTSSSPIYGKVDTARMGVMGHSMGGGGSLISAANNPSLKAAAPQAPWDSSTNFSSVTVPTLIFAAENDSIAPVNSSALPIYDSMSRNAKQFLEINGGSHFAANSGNSNQALIGKKGVAWMKRFMDNDTRYSTFACENPNSTRVSDFRTANCS
B9: unnamed (protein)
chain: MNFPRASRLMQAAVLGGLMAVSAAATAQTNPYARGPNPTAASLEASAGPFTVRSFTVSRPSGYGAGTVYYPTNAGGTVGAIAIVPGYTARQSSIKWWGPRLASHGFVVITIDTNSTLDQPSSRSSQQMAALRQVASLNGTSSSPIYGKVDTARMGVMGWSMGGGGSLISAANNPSLKAAAPQAPWDSSTNFSSVTVPTLIFACENDSIAPVNSSALPIYDSMSRNAKQFLEINGGSHFCANSGNSNQALIGKKGVAWMKRFMDNDTRYSTFACENPNSTRVSDFRTANCS
B10: unnamed (protein)
chain: MNFPRASRLMQAAVLGGLMAVSAAATAQTNPYARGPNPTAASLEASAGPFTVRSFTVSRPSGYGAGTVYYPTNAGGTVGAIAIVPGYTARQSSIKWWGPRLASHGFVVITIDTNSTLDQPSSRSSQQMAALRQVASLNGTSSSPIYGKVDTARMGVMGWSMGGGGSLISAANNPSLKAAAPQAPWDSSTNFSSVTVPTLIFAAENDSIAPVNSSALPIYDSMSRNAKQFLEINGGSHSAANSGNSNQALIGKKGVAWMKRFMDNDTRYSTFACENPNSTRVSDFRTANCS
B11: unnamed (protein)
chain: MNFPRASRLMQAAVLGGLMAVSAAATAQTNPYARGPNPTAASLEASAGPFTVRSFTVSRPSGYGAGTVYYPTNAGGTVGAIAIVPGYTARQSSIKWWGPRLASHGFVVITIDTNSTLDQPSSRSSQQMAALRQVASLNGTSSSPIYGKVDTARMGVMGHSMGGGGSLISAANNPSLKAAAPQAPWDSSTNFSSVTVPTLIFACENDSIAPVNSSALPIYDSMSRNAKQFLEINGGSHFCANSGNSNQALIGKKGVAWMKRFMDNDTRYSTFACENPNSTRVSDFRTANCS
B12: unnamed (protein)
chain: MNFPRASRLMQAAVLGGLMAVSAAATAQTNPYARGPNPTAASLEASAGPFTVRSFTVSRPSGYGAGTVYYPTNAGGTVGAIAIVPGYTARQSSIKWWGPRLASHGFVVITIDTNSTLDQPSSRSSQQMAALRQVASLNGTSSSPIYGKVDTARMGVMGHSMGGGGSLISAANNPSLKAAAPQAPWDSSTNFSSVTVPTLIFACENDSIAPVNSSALPIYDSMSRNAKQFLEINGGSHSCANSGNSNQALIGKKGVAWMKRFMDNDTRYSTFACENPNSTRVSDFRTANCS
B13: unnamed (protein)
chain: MNFPRASRLMQAAVLGGLMAVSAAATAQTNPYARGPNPTAASLEASAGPFTVRSFTVSRPSGYGAGTVYYPTNAGGTVGAIAIVPGYTARQSSIKWWGPRLASHGFVVITIDTNSTLDQPSSRSSQQMAALRQVASLNGTSSSPIYGKVDTARMGVMGWSMGGGGSLISAANNPSLKAAAPQAPWDSSTNFSSVTVPTLIFACENDSIAPVNSSALPIYDSMSRNAKQFLEINGGSHSCANSGNSNQALIGKKGVAWMKRFMDNDTRYSTFACENPNSTRVSDFRTANCS

Substrate in one series: PEF
Description: Proxy for plastic degradation [kcat] (s⁻¹). To be noted: pH 9.
B1: the “Proxy for plastic degradation” value came out at 0.004.

As to B2, the “Proxy for plastic degradation” value was found to be 0.0175.

With B3, the “Proxy for plastic degradation” value amounted to 0.115.

B4: the “Proxy for plastic degradation” value was found to be 0.006.

In the case of B5, the “Proxy for plastic degradation” value was 0.085.

Turning to B6, the “Proxy for plastic degradation” value was determined as 0.005.

Consider B7, for which the “Proxy for plastic degradation” value was found to be 0.033.

For the protein B8, the “Proxy for plastic degradation” value was found to be 0.

B9: the “Proxy for plastic degradation” value was determined as 0.35.

For the protein B10, the “Proxy for plastic degradation” value turned out to be 0.

As to B12, the “Proxy for plastic degradation” value came to 0.17.

Substrate in another series: PET
The experiment in a line: Proxy for plastic degradation [kcat] (s⁻¹). To be noted: pH 9.
B1: the “Proxy for plastic degradation” value is 0.0031.

With B2, the “Proxy for plastic degradation” value amounted to 0.018.

For the protein B3, the “Proxy for plastic degradation” value is 0.03.

Consider B4, for which the “Proxy for plastic degradation” value was 0.0045.

In the case of B5, the “Proxy for plastic degradation” value was determined as 0.035.

As to B6, the “Proxy for plastic degradation” value stood at 0.01.

As for B7, the “Proxy for plastic degradation” value is 0.003.

With B8, the “Proxy for plastic degradation” value is 0.

B9: the “Proxy for plastic degradation” value came to 0.035.

On to B10, for which the “Proxy for plastic degradation” value is 0.

In the case of B12, the “Proxy for plastic degradation” value was 0.03.

Substrate in another series: not listed separately
The experiment in a line: Proxy for plastic degradation [melting temperature]. To be noted: pH 7.
As to B1, the “Proxy for plastic degradation” value stood at 82 °C.

Regarding B2, the “Proxy for plastic degradation” value is 84.5 °C.

On to B3, for which the “Proxy for plastic degradation” value turned out to be 83 °C.

As for B4, the “Proxy for plastic degradation” value is 82.5 °C.

For B5, the “Proxy for plastic degradation” value came to 85 °C.

Consider B6, for which the “Proxy for plastic degradation” value was found to be 85 °C.

As for B7, the “Proxy for plastic degradation” value was determined as 84.9 °C.

Regarding B8, the “Proxy for plastic degradation” value stood at 39.5 °C.

As to B9, the “Proxy for plastic degradation” value was found to be 48.5 °C.

In the case of B10, the “Proxy for plastic degradation” value was 40.4 °C.

Consider B12, for which the “Proxy for plastic degradation” value was found to be 48 °C.

Substrate in another series: pNPB
The experiment in a line: Proxy for plastic degradation [kcat/Km (catalytic efficiency)] (mM⁻¹s⁻¹). The conditions noted are these: pH 7.
Regarding B1, the “Proxy for plastic degradation” value was determined as 335.

Take B2: the “Proxy for plastic degradation” value worked out at 28.

Take B3: the “Proxy for plastic degradation” value is 125.

Turning to B4, the “Proxy for plastic degradation” value worked out at 2.8.

With B5, the “Proxy for plastic degradation” value worked out at 175.

Regarding B6, the “Proxy for plastic degradation” value worked out at 398.

With B7, the “Proxy for plastic degradation” value stood at 67.

On to B8, for which the “Proxy for plastic degradation” value was found to be 2.1.

Consider B9, for which the “Proxy for plastic degradation” value worked out at 3.3.

B10: the “Proxy for plastic degradation” value came out at 0.

Take B12: the “Proxy for plastic degradation” value turned out to be 45.8.

Substrate in a further series: pNPB
The experiment in a line: Proxy for plastic degradation [PET preference ratio] (% relative activity). The conditions noted are these: pH 7.
In the case of B3, the “Proxy for plastic degradation” value was 0.

Consider B8, for which the “Proxy for plastic degradation” value came to 0.

For the protein B10, the “Proxy for plastic degradation” value was 0.

Substrate in another series: PEF
Description: Proxy for plastic degradation [Released monomer concentration (HPLC/LC-MS) (FDCA + MHEF)] (s⁻¹). To be noted: pH 9.
Regarding B8, the “Proxy for plastic degradation” value was determined as 0.

B9: the “Proxy for plastic degradation” value amounted to 0.35.

Turning to B10, the “Proxy for plastic degradation” value was determined as 0.

As for B12, the “Proxy for plastic degradation” value came out at 0.2.

Substrate in the next series: PET
Description: Proxy for plastic degradation [Released monomer concentration (HPLC/LC-MS) (TPA+MHET+BHET)] (s⁻¹). To be noted: pH 9.
Consider B8, for which the “Proxy for plastic degradation” value was found to be 0.

On to B9, for which the “Proxy for plastic degradation” value worked out at 0.037.

In the case of B10, the “Proxy for plastic degradation” value was determined as 0.

As to B12, the “Proxy for plastic degradation” value was 0.03.

Substrate in a further series: PEF
Description: Proxy for plastic degradation [kcat] (s⁻¹). The conditions noted are these: pH 9; part of the chain shown.
Regarding B11, the “Proxy for plastic degradation” value was 0.08.

On to B13, for which the “Proxy for plastic degradation” value turned out to be 1.02.

Substrate in a further series: PET
The experiment in a line: Proxy for plastic degradation [kcat] (s⁻¹). The conditions noted are these: pH 9; part of the chain shown.
Turning to B11, the “Proxy for plastic degradation” value came to 0.013.

For the protein B13, the “Proxy for plastic degradation” value amounted to 0.09.

Substrate in the next series: not listed separately
Description: Proxy for plastic degradation [melting temperature]. The conditions noted are these: pH 7; part of the chain shown.
As to B11, the “Proxy for plastic degradation” value came out at 47.9 °C.

Substrate in the next series: pNPB
The experiment in a line: Proxy for plastic degradation [kcat/Km (catalytic efficiency)] (mM⁻¹s⁻¹). The conditions noted are these: pH 7; part of the chain shown.
For the protein B11, the “Proxy for plastic degradation” value was 22.8.

For the protein B13, the “Proxy for plastic degradation” value was found to be 8.7.

Substrate in a further series: PEF
The experiment in a line: Proxy for plastic degradation [Released monomer concentration (HPLC/LC-MS) (FDCA + MHEF)] (s⁻¹). To be noted: pH 9; part of the chain shown.
Consider B11, for which the “Proxy for plastic degradation” value was 0.11.

In the case of B13, the “Proxy for plastic degradation” value was found to be 1.

Substrate in another series: PET
Description: Proxy for plastic degradation [Released monomer concentration (HPLC/LC-MS) (TPA+MHET+BHET)] (s⁻¹). To be noted: pH 9; part of the chain shown.
Regarding B11, the “Proxy for plastic degradation” value is 0.012.

For B13, the “Proxy for plastic degradation” value is 0.075.
